Experimental data as given in patent US20250109207A1.

Assays:
Human FcγRIIb (human) [1] = target: Human FcγRIIb (human) (UniProt P31994); test: SPR (Biacore); His-tagged FcγR captured, antibody injected; kinetic fit or steady state
[2] = target: Human FcγRIIa (H131) (human) (UniProt P12318); test: as above
[3] = target: Human FcγRIIa (R131) (human) (UniProt P12318); test: as above
Human FcγRIIb (human) [4] = target: Human FcγRIIb (human) (UniProt P31994); test: SPR (Biacore); His-tagged FcγR captured on anti-penta-His chip, antibody injected
[5] = target: Human FcγRIIIa (V176) (human) (UniProt P08637); test: as above
Sequence of Human FcγRIIIa (V176) (human) (P08637 17-208 F176V limits assumed): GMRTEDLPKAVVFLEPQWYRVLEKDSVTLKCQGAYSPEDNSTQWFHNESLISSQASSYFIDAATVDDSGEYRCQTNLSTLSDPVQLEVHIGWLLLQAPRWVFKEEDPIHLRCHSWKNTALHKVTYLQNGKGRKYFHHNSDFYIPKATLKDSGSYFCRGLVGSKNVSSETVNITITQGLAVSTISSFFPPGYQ

[6] = target: Human FcγRIIa (H131) (human) (UniProt P12318); test: as above
[7] = target: Human FcγRIIa (R131) (human) (UniProt P12318); test: as above

Sequence of Human FcγRIIa (R131) (human) (P12318 36-218 H167R limits assumed): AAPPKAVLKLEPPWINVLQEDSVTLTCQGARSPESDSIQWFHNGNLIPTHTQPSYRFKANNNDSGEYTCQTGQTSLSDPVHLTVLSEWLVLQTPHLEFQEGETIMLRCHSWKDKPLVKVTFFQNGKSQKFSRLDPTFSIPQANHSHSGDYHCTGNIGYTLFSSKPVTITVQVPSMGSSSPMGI
Sequence of Human FcγRIIb (human) (P31994 46-217 limits assumed): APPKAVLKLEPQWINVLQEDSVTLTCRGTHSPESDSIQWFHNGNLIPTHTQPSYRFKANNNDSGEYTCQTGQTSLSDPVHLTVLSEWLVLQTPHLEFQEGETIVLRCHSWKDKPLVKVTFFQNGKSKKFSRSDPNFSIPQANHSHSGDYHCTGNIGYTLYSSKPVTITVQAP
Sequence of Human FcγRIIa (H131) (human) (P12318 36-218 limits assumed): as the sequence (P12318 36-218 H167R limits assumed) above, with R132H counted along it

Kd (Human FcγRIIb (human) [1]): 12.3 µM | Kd [2]: 1610 nM | Kd [3]: 1320 nM | binding signal (RU) (Human FcγRIIb (human) [4]): 226 RU | binding signal (RU) [5]: 34 RU | binding signal (RU) [6]: 419 RU | binding signal (RU) [7]: 340 RU
B1: mAb3, IgG4s (antibody, part only; not given: variable domains and light chain, not shown: another chain or arm of the molecule)
Fc: ESKYGPPCPPCPAPPVAGPSVFLFPPKPKDTLMISRTPEVTCVVVDVSQEDPEVQFNWYVDGVEVHNAKTKPREEQFNSTYRVVSVLTVLHQDWLNGKEYKCKVSNKGLPSSIEKTISKAKGQPREPQVYTLPPSQEEMTKNQVSLTCLVKGFYPSDIAVEWESNGQPENNYKTTPPVLDSDGSFFLYSRLTVDKSRWQEGNVFSCSVMHEALHNHYTQKSLSLSLGK
